# In US20220119448A1 (ZHEJIANG DOER BIOLOGICS, published 2022):
# Molecular target: GLP-2R (GLP-2 receptor) on GLP-2R/Luc-CHO cells
# Test: cell-based or functional assay
row,"in vitro cytological activity, EC50 (luciferase reporter, GLP-2R/Luc-CHO cells) [nM]",Binder
1,279,GLP2G-PU69x45 (ligand) HGDGSFSDEMNTILDNLAARDFINWLIQTKITDAPPEAPEAPEAAPAAPEPAEAPPEAPEAPEAAPAAPEPAEAPPEAPEAPEAAPAAPEPAEAPPEAPEAPEAAPAAPEPAEAPPEAPEAPEAAPAAPEPAEAPPEAPEAPEAAPAAPEPAEAPPEAPEAPEAAPAAPEPAEAPPEAPEAPEAAPAAPEPAEAPPEAPEAPEAAPAAPEPAEAPPEAPEAPEAAPAAPEPAEAPPEAPEAPEAAPAAPEPAEAPPEAPEAPEAAPAAPEPAEAPPEAPEAPEAAPAAPEPAEAPPEAPEAPEAAPAAPEPAEAPPEAPEAPEAAPAAPEPAEAPPEAPEAPEAAPAAPEPAEAPPEAPEAPEAAPAAPEPAEAPPEAPEAPEAAPAAPEPAEAPPEAPEAPEAAPAAPEPAEAPPEAPEAPEAAPAAPEPAEAPPEAPEAPEAAPAAPEPAEAPPEAPEAPEAAPAAPEPAEAPPEAPEAPEAAPAAPEPAEAPPEAPEAPEAAPAAPEPAEAPPEAPEAPEAAPAAPEPAEAPPEAPEAPEAAPAAPEPAEAPPEAPEAPEAAPAAPEPAEAPPEAPEAPEAAPAAPEPAEAPPEAPEAPEAAPAAPEPAEAPPEAPEAPEAAPAAPEPAEAPPEAPEAPEAAPAAPEPAEAPPEAPEAPEAAPAAPEPAEAPPEAPEAPEAAPAAPEPAEAPPEAPEAPEAAPAAPEPAEAPPEAPEAPEAAPAAPEPAEAPPEAPEAPEAAPAAPEPAEAPPEAPEAPEAAPAAPEPAEAPPEAPEAPEAAPAAPEPAEAPPEAPEAPEAAPAAPEPAEAPPEAPEAPEAAPAAPEPAEAPPEAPEAPEAAPAAPEPAEAPPEAPEAPEAAPAAPEPAEAPPEAPEAPEAAPAAPEPAEAPPEAPEAPEAAPAAPEPAEAPPEAPEAPEAAPAAPEPAE
2,299,GLP2G-PU141x47 (ligand) HGDGSFSDEMNTILDNLAARDFINWLIQTKITDAPAAPPEEAAAEPPAAEAAPAPAAPPEEAAAEPPAAEAAPAPAAPPEEAAAEPPAAEAAPAPAAPPEEAAAEPPAAEAAPAPAAPPEEAAAEPPAAEAAPAPAAPPEEAAAEPPAAEAAPAPAAPPEEAAAEPPAAEAAPAPAAPPEEAAAEPPAAEAAPAPAAPPEEAAAEPPAAEAAPAPAAPPEEAAAEPPAAEAAPAPAAPPEEAAAEPPAAEAAPAPAAPPEEAAAEPPAAEAAPAPAAPPEEAAAEPPAAEAAPAPAAPPEEAAAEPPAAEAAPAPAAPPEEAAAEPPAAEAAPAPAAPPEEAAAEPPAAEAAPAPAAPPEEAAAEPPAAEAAPAPAAPPEEAAAEPPAAEAAPAPAAPPEEAAAEPPAAEAAPAPAAPPEEAAAEPPAAEAAPAPAAPPEEAAAEPPAAEAAPAPAAPPEEAAAEPPAAEAAPAPAAPPEEAAAEPPAAEAAPAPAAPPEEAAAEPPAAEAAPAPAAPPEEAAAEPPAAEAAPAPAAPPEEAAAEPPAAEAAPAPAAPPEEAAAEPPAAEAAPAPAAPPEEAAAEPPAAEAAPAPAAPPEEAAAEPPAAEAAPAPAAPPEEAAAEPPAAEAAPAPAAPPEEAAAEPPAAEAAPAPAAPPEEAAAEPPAAEAAPAPAAPPEEAAAEPPAAEAAPAPAAPPEEAAAEPPAAEAAPAPAAPPEEAAAEPPAAEAAPAPAAPPEEAAAEPPAAEAAPAPAAPPEEAAAEPPAAEAAPAPAAPPEEAAAEPPAAEAAPAPAAPPEEAAAEPPAAEAAPAPAAPPEEAAAEPPAAEAAPAPAAPPEEAAAEPPAAEAAPAPAAPPEEAAAEPPAAEAAPAPAAPPEEAAAEPPAAEAAPAPAAPPEEAAAEPPAAEAAPAPAAPPEEAAAEPPAAEAAPAPAAPPEEAAAEPPAAEAAPAPAAPPEEAAAEPPAAEAAP
